Drawing on publication PMC6328183, this text covers Kd for 1 substance.

In this experiment the target is FuBc protein (recombinant protein of the fusion loop and Bc loop of domain II of dengue envelope protein with their neighbouring residues) (DENV-2 (of the template structure PDB 1OAN)). The experiment in a line: SPR; Biacore T200; FuBc immobilised by amine coupling; scFv injected at 10 uM down to 50 nM, 20 ul/min over 2 min; regeneration with 2 M NaCl; control flow cell subtracted; KD as kd/ka. Background: In SPR one partner is held on a chip, and binding of the other changes the refractive index at the surface.

Chain of 3IXY scFv antibody (VH and VL of the anti-fusion loop dengue E53 Fab, PDB 3IXY, joined by a (G4S)3 linker) (VH): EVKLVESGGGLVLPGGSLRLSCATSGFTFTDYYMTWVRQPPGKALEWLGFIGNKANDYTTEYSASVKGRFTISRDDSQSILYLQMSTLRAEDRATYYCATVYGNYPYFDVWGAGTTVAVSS
Chain of 3IXY scFv antibody (VH and VL of the anti-fusion loop dengue E53 Fab, PDB 3IXY, joined by a (G4S)3 linker) (VL): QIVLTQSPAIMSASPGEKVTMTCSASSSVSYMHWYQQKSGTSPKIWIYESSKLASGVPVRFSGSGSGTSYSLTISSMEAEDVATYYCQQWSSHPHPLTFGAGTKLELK

One may read the Kd as a measure of binding affinity in units of concentration. As to “3IXY scFv antibody (VH and VL of the anti-fusion loop dengue E53 Fab, PDB 3IXY, joined by a (G4S)3 linker)”, the Kd came to 2300 nM.
